Assay results taken from paper PMC5736207.
Where a chain is given by its changes, count along the chain named. In names and notes the source's numbering stands.

B1: PMM1 (phosphomannomutase1) (Homo sapiens; E219K/M186Q/N218D) (protein)
chain: AVTAQAARRKERVLCLFDVDGTLTPARQKIDPEVAAFLQKLRSRVQIGVVGGSDYCKIAEQLGDGDEVIEKFDYVFAENGTVQYKHGRLLSKQTIQNHLGEELLQDLINFCLSYMALLRLPKKRGTFIEFRNGMLNISPIGRSCTLEERIEFSELDKKEKIREKFVEALKTEFAGKGLRFSRGGQISFDVFPEGWDKRYCLDSLDQDSFDTIHFFGDKTSPGGNDFEIFADPRTVGHSVVSPQDTVQRCREIFFPETAHEA
notes: recombinant, E. coli BL21(DE3), purified as in earlier work (DEAE, butyl Sepharose); dimer; no tag mentioned
B2: PMM1 (phosphomannomutase1) (Homo sapiens) (protein)
chain: B1 chain with Q185M, D217N, K218E
notes: as for B1
B3: PMM2 (phosphomannomutase2) (Homo sapiens) (protein)
chain: AAPGPALCLFDVDGTLTAPRQKITKEMDDFLQKLRQKIKIGVVGGSDFEKVQEQLGNDVVEKYDYVFPENGLVAYKDGKLLCRQNIQSHLGEALIQDLINYCLSYIAKIKLPKKRGTFIEFRNGMLNVSPIGRSCSQEERIEFYELDKKENIRQKFVADLRKEFAGKGLTFSIGGQISFDVFPDGWDKRYCLRHVENDGYKTIYFFGDKTMPGGNDHEIFTDPRTMGYSVTAPEDTRRICELLFS
notes: recombinant, E. coli BL21(DE3), purified as in earlier work; no tag mentioned

Key:
purified protein [1] = substrate: O=P(O)(O)O[C@H]1O[C@H](CO)[C@@H](O)[C@H](O)[C@H]1O; assay: purified protein; format: biochemical, Homo sapiens; conditions: 27 μM Glc-1,6-P2, MgCl2 5 mM, pH 7.5, 32°C
purified protein [2] = substrate: O=P(O)(O)O[C@H]1O[C@H](CO)[C@@H](O)[C@H](O)[C@@H]1O; assay: purified protein; format: biochemical, Homo sapiens; conditions: pH 7.5, 32°C

Protein | Km (purified protein [1]) | Km (purified protein [2]; 10 μM Man-1,6-P2, MgCl2 5 mM) | Km (purified protein [2]; 3 μM Man-1,6-P2, MgCl2 5 mM)
B1 | 3.5 ± 1.3 µM | 1.6 ± 0.4 µM | 
B2 | 7.3 ± 1.7 µM | 6.5 ± 1.3 µM | 
B3 |  |  | 23.7 ± 4.5 µM
